From US9976134B2, “Thermolysin variants” (Danisco US Inc., priority 2007, dated 2018)
Changes are numbered by the printed parent chain. Names and notes keep the numbering of the source.

Assays:
thermolysin = target: T1, thermolysin (Bacillus thermoproteolyticus, UniProt P00800); test: Stabilisation of thermolysin in Unilever ALL Small and Mighty detergent by metalloproteinase inhibitors (SDS-PAGE); conditions: thermolysin 800 μg/ml in Unilever ALL Small and Mighty, FIG. 8
T1 construct: purchased Sigma
T1 sequence (P00800 233-548): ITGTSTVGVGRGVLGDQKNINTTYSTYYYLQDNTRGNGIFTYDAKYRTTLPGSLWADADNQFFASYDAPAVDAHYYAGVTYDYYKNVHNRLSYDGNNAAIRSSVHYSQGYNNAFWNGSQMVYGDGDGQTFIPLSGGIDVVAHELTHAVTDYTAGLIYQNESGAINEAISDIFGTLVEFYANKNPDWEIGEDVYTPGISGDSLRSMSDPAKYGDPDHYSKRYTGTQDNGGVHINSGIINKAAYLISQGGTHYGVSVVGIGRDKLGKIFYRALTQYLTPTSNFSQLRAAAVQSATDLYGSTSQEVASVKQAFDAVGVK
Experimental: Zinc Chloride, Phosphoramidon, Galardin are known metalloproteinase inhibitors. They were purchased from Sigma and dissolved in water or DMSO. Different concentrations of the inhibitors were premixed with thermolysin (also referred to as Proteinase-T or PrT) for 10 min at room temperature. Then the inhibitors were added into Unilever detergent ALL Small and Mighty so that the final concentration of thermolysin was 800 μg/ml in a total volume of 1 ml. At different time points, samples were taken and precipitated with TCA. Briefly, 10 μl sample of detergent with enzyme was added into 500 μl of 0.2 N HCl on ice, and then 500 μl of 20% TCA was added. The tubes were mixed and incubated on ice for 20 min. The pellet was collected and washed with 90% ice-cold acetone. The pellet was dissolved in sample loading buffer (Invitrogen) for SDS-PAGE analysis.

[1] = Stability assay in 25% TIDE 2X detergent with DTPA (residual Abz-AGLA-Nba protease activity); type: physicochemical; conditions: 60 min at 32°C; variant residual AGLA activity divided by wild-type residual activity
In short: (§1)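 Thermolysin variant culture supernatants stressed in TIDE 2× detergent, with or without DTPA: 60 min at 32° C or 180 min at 50° C. Residual versus unstressed activity on Abz-AGLA-Nba read kinetically at 25° C (Ex 350/Em 420). Performance index is variant residual activity divided by wild-type thermolysin residual activity.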

[2] = Stability assay in 25% TIDE 2X detergent without DTPA (residual Abz-AGLA-Nba protease activity); type: physicochemical; conditions: 180 min at 50°C; variant residual AGLA activity divided by wild-type residual activity
In short: as §1

[3] = TIDE 2X 0.78 g/l, 6 gpg, pH 8.2, 30 min at 20°C, A405; variant vs wild-type thermolysin at same protein concentration
Experimental: Thermolysin containing protease samples were obtained from filtered broth of cultures grown in microtiter plates for 3 days at 37° C. with shaking at 280 rpm under humidified aeration.
• Thermolysin containing culture supernatants (˜100-200 μg protein per ml) • TIDE® 2× (nil enzymes) detergent (P&G) • Dilution Buffer (10 mM NaCl, 0.1 mM CaCl2, 0.005% TWEEN®-80) The equipment used was a Biomek FX Robot (Beckman Coulter), a SpectraMAX MTP Reader (type 340; Molecular Devices), and an iEMS incubator/shaker (Thermo/Labsystems). MTPs were obtained from Costar (type 9017). TIDE® 2× Liquid Detergent Preparation (US Conditions):
Milli-Q water was adjusted to 6 gpg water hardness using a (Ca/Mg 3:1) hardness stock solution (282.3 g/L CaCl2.2H20, 130.1 g/L MgCl2.6H2O), 0.78 g/1 detergent TIDE® 2× was added, and the detergent solution was stirred vigorously for at least 15 minutes. Then, 5 mM HEPES was added and the pH adjusted to 8.2.
Microswatches of ¼ inch circular diameter were obtained from CFT (Vlaardingen, The Netherlands).
Two microswatches were placed vertically into each well of a 96-well microtiter plate to expose the whole surface area (i.e., not flat on the bottom of the well).
The incubator was set to 20° C. The filtered culture broth samples were tested at an appropriate concentration by dilution with a mixture of 10 mM NaCl, 0.1 mM CaCl2, 0.005% TWEEN®-80 solution. The detergent solution was prepared as described above. Then, 190 μl of detergent solution were added to each well of the MTP, containing microswatches. To this mixture, 10 μl of diluted enzyme solution were added to each well (to provide a total volume of 200 μl/well). The MTP was covered with a plate seal and placed in an incubator for 30 minutes at 20° C., with agitation at 1400 rpm (iEMS incubator). Following incubation under the appropriate conditions, 100 μl of solution from each well was removed and placed into a new MTP. Subsequently this MTP, containing 100 μl of solution/well, was read at 405 nm in a MTP-Reader. Blank controls, containing 2 microswatches/well and detergent, without the addition of thermolysin containing samples, were also included in the test.
The observed absorbance value was corrected for the blank value (obtained after incubation of microswatches in the absence of added enzyme). The resulting absorbance was a measure for the hydrolytic activity. For each sample (thermolysin or a variant) the performance index (PI) was calculated. The performance index is a comparison of the performance of the variant (actual value) and the standard thermolysin enzyme (theoretical value) at the same protein concentration. In addition, the theoretical values were calculated, using the parameters of the Langmuir equation of the standard enzyme.
C. Stability Assay in the Presence of Detergent
In this example, experiments were conducted to determine the stain removal performance of various singly substituted thermolysin (also referred to herein as Proteinase-T or PrT) variants. As described in Example 1, the stain cleaning performance of thermolysin variants was done utilizing a blood/milk/ink (BMI) microswatch assay. Briefly the cleaning performance of chosen single-substitution thermolysin variants was assessed in a TIDE® 2× microswatch assay.

**Q.** Which “stabilisation of thermolysin in detergent” value (thermolysin; 500 μM inhibitor) does the source give for `CC(C)C[C@H](NP(=O)(O)O[C@@H]1O[C@@H](C)[C@H](O)[C@@H](O)[C@H]1O)C(=O)N[C@@H](Cc1c[nH]c2ccccc12)C(=O)O` [Phosphoramidon] here?
**A.** The value was “significantly stabilize thermolysin in detergent”.

**Q.** Which “stabilisation of thermolysin in detergent” value (thermolysin; 1 mM inhibitor) does the source give for `CNC(=O)[C@H](Cc1c[nH]c2ccccc12)NC(=O)[C@@H](CC(=O)NO)CC(C)C` [Galardin] here?
**A.** The value was “significantly stabilize thermolysin in detergent”.

B1: Q128I: single-substitution thermolysin variant (SEQ ID NO:3 numbering) (protein, listed as Geobacillus caldoproteolyticus)
chain: T1 sequence (P00800 233-548) with Q128I
**Q.** For B1, which “PI (relative stability), 25% TIDE 2X with DTPA” value [1] is on record?
**A.** The value was 1.32.

**Q.** And the “PI (relative stability), 25% TIDE 2X without DTPA” value [2]?
**A.** Its value is 1.19.

**Q.** What about the “PI (performance index), stain removal” value [3] of the same molecule?
**A.** The value was 1.34.

B2: Y151N: single-substitution thermolysin variant (SEQ ID NO:3 numbering) (protein, listed as Geobacillus caldoproteolyticus)
chain: T1 sequence (P00800 233-548) with Y151N
**Q.** With B2 as the molecule, how does the “PI (relative stability), 25% TIDE 2X with DTPA” value [1] read?
**A.** The value was 1.25.

**Q.** And the “PI (relative stability), 25% TIDE 2X without DTPA” value [2]?
**A.** The value was 1.05.

**Q.** What about the “PI (performance index), stain removal” value [3] of the same molecule?
**A.** The value was 1.19.

B3: Q128V: single-substitution thermolysin variant (SEQ ID NO:3 numbering) (protein, listed as Geobacillus caldoproteolyticus)
chain: T1 sequence (P00800 233-548) with Q128V
**Q.** With B3 as the molecule, how does the “PI (relative stability), 25% TIDE 2X with DTPA” value [1] read?
**A.** The value was 1.45.

**Q.** What about the “PI (relative stability), 25% TIDE 2X without DTPA” value [2] of the same molecule?
**A.** Its value is 1.20.

**Q.** And the “PI (performance index), stain removal” value [3]?
**A.** Its value is 1.07.

B4: Q128Y: single-substitution thermolysin variant (SEQ ID NO:3 numbering) (protein, listed as Geobacillus caldoproteolyticus)
chain: T1 sequence (P00800 233-548) with Q128Y
**Q.** With B4 as the molecule, how does the “PI (relative stability), 25% TIDE 2X with DTPA” value [1] read?
**A.** Its value is 1.09.

**Q.** And the “PI (relative stability), 25% TIDE 2X without DTPA” value [2]?
**A.** Its value is 1.05.

**Q.** And the “PI (performance index), stain removal” value [3]?
**A.** Its value is 1.13.

B5: T049N: single-substitution thermolysin variant (SEQ ID NO:3 numbering) (protein, listed as Geobacillus caldoproteolyticus)
chain: T1 sequence (P00800 233-548) with T49N
**Q.** With B5 as the molecule, how does the “PI (relative stability), 25% TIDE 2X with DTPA” value [1] read?
**A.** Its value is 1.03.

**Q.** And the “PI (relative stability), 25% TIDE 2X without DTPA” value [2]?
**A.** The value was 1.07.

**Q.** What about the “PI (performance index), stain removal” value [3] of the same molecule?
**A.** The value was 1.10.

B6: Y151T: single-substitution thermolysin variant (SEQ ID NO:3 numbering) (protein, listed as Geobacillus caldoproteolyticus)
chain: T1 sequence (P00800 233-548) with Y151T
**Q.** Which “PI (relative stability), 25% TIDE 2X with DTPA” value [1] does the source give for B6 here?
**A.** Its value is 1.18.

**Q.** What about the “PI (relative stability), 25% TIDE 2X without DTPA” value [2] of the same molecule?
**A.** Its value is 1.10.

**Q.** What about the “PI (performance index), stain removal” value [3] of the same molecule?
**A.** The value was 1.13.

B7: Q128M: single-substitution thermolysin variant (SEQ ID NO:3 numbering) (protein, listed as Geobacillus caldoproteolyticus)
chain: T1 sequence (P00800 233-548) with Q128M
**Q.** Which results are given for B7?
**A.** PI (relative stability), 25% TIDE 2X with DTPA [1]: 1.06; PI (relative stability), 25% TIDE 2X without DTPA [2]: 1.09; PI (performance index), stain removal [3]: 1.10
